Data on one substance can be found in US20040002586A1.

The target of the assay is recombinant human interleukin-22 (IL-22), expressed in E. coli from pEThTIF, refolded, not glycosylated (human) (UniProt Q9GZX6). Put plainly: X-ray crystal structure, surface buried between monomer A and monomer B.

With “recombinant human interleukin-22 (IL-22), expressed in E. coli from pEThTIF, refolded, not glycosylated (from UniProt Q9GZX6 29-179) (ligand)”, the interface area amounted to 2250 Å^2.
